Consider 4 molecules from patent US20240216518A1 (HARPOON THERAPEUTICS, published 2024).

The term Kd denotes a measure of binding affinity in units of concentration. Read a high Kd as weaker binding.

In assay [1] the target is T1, FLT3 TriTAC.
T1 construct: Single-chain trispecific; also called constitutively active FLT3 TriTAC
The assay can be described thus: biolayer interferometry. On the technique in general: In BLI a coated tip is dipped into the sample, and binding shifts an interference pattern.

Assay [2] has as its target T2, stub:Active control; αCD19 T:A:C stub:Active.
T2 construct: Single-chain trispecific; also called TriTAC-XR active drug; constitutively active CD19 TriTAC
The assay can be described thus: ELISA on recombinant human CD3ε. On the technique in general: An ELISA detects its analyte on a solid surface through an enzyme-linked reagent.

T1 sequence (chain, as listed by the source): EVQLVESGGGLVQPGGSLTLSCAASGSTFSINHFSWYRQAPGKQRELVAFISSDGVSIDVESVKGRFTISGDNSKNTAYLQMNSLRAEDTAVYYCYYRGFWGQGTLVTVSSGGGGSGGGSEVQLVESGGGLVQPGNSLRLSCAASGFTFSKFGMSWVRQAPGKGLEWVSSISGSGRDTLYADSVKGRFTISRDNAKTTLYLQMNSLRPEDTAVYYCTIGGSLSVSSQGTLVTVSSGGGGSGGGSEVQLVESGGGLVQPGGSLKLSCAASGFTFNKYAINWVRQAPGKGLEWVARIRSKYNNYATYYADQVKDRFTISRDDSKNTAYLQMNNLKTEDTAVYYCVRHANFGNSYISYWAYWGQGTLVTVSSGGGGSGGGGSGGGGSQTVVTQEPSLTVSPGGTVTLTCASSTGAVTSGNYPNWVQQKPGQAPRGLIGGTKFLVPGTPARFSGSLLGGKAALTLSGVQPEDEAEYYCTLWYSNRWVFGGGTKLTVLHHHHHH
T2 sequence (chain, as listed by the source): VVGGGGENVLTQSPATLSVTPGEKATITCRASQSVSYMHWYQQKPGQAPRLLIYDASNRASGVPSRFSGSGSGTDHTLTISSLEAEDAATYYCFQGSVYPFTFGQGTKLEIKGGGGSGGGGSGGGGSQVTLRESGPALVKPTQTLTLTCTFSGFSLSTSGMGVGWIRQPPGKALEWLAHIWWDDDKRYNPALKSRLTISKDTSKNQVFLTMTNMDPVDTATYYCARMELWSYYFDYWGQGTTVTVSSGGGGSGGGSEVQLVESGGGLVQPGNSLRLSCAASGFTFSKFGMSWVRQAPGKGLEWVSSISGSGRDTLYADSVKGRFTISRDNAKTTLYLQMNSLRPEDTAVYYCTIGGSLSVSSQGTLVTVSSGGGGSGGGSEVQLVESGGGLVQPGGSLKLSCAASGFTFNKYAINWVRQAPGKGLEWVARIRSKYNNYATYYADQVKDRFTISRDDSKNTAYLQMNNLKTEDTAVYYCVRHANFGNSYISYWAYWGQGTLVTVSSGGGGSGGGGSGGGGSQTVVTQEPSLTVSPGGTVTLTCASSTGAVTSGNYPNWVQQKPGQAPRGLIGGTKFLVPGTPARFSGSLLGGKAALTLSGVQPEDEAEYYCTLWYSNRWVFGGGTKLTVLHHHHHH

B1: cynomolgus CD3 (receptor)
chain: QDGNEEMGSITQTPYQVSISGTTVILTCSQHLGSEAQWQHNGKNKEDSGDRLFLPEFSEMEQSGYYVCYPRGSNPEDASHHLYLKARVCENCMEMD
Molecule B1 came in with a Kd in assay [1] of 3.3 nM.

B2: cynomolgus albumin (other, UniProt A2V9Z4 25-608, looked up)
chain: DTHKSEVAHRFKDLGEEHFKGLVLVAFSQYLQQCPFEEHVKLVNEVTEFAKTCVADESAENCDKSLHTLFGDKLCTVATLRETYGEMADCCAKQEPERNECFLQHKDDNPNLPPLVRPEVDVMCTAFHDNEATFLKKYLYEVARRHPYFYAPELLFFAARYKAAFAECCQAADKAACLLPKLDELRDEGKASSAKQRLKCASLQKFGDRAFKAWAVARLSQKFPKAEFAEVSKLVTDLTKVHTECCHGDLLECADDRADLAKYMCENQDSISSKLKECCDKPLLEKSHCLAEVENDEMPADLPSLAADYVESKDVCKNYAEAKDVFLGMFLYEYARRHPDYSVMLLLRLAKAYEATLEKCCAAADPHECYAKVFDEFQPLVEEPQNLVKQNCELFEQLGEYKFQNALLVRYTKKVPQVSTPTLVEVSRNLGKVGAKCCKLPEAKRMPCAEDYLSVVLNRLCVLHEKTPVSEKVTKCCTESLVNRRPCFSALELDEAYVPKAFNAETFTFHADMCTLSEKEKQVKKQTALVELVKHKPKATKEQLKGVMDNFAAFVEKCCKADDKEACFAEEGPKFVAASQAALA
notes: also called cynomolgus serum albumin
In assay [1], B2 displayed a Kd of 4.4 nM.

B3: cynomolgus FLT3 (receptor)
chain: NQDLPVIKCVLINHKNNDSSVGKSSSYPMVSESPEDLGCALRPQSAGTVYEAATVEVDVSASITLQVLVDTPGNISCLWVFKHSSLNCQPHFDVQNRGVVSMVILKMTETQAGEYLLFIQSEATNYTIVFTVSIRNTLLFTLRRPYFRKMENQDALVCISESVPEPIVEWVLCDSQGESCKEESPAVVKKEEKVLHELFGTDIRCCARNELGRECTRLFTIDLNQTPQTTLPQLFLKVGEPLWIRCKAVHVNHGFGLTWELENKALEEGSYFEMSTYSTNRTMIRILFAFVSSVARNDTGYYTCSSSKHPSQSALVTIVEKGFINATNSSEDYEIDQYEEFCFSVRFKAYPQIRCTWTFSRKAFPCEQKALDDGYSVSKFCNHKHQPGEYIFHAENGDAQFTKMFTLNIRRKPQVLAEASASQASCSSDGYPLPSWTWKKCSDKSPNCTEDIPEGVWNRKANRKVFGQWVSSSTLNMSEAMKGFLVKCCAYNSLGTSCETILLNSPGPFPFIQDS
With B3, binding in assay [1] was characterised by a dissociation constant (Kd) of 2.7 nM.

B4: recombinant human CD3ε (receptor, UniProt P07766 23-126, looked up)
chain: DGNEEMGGITQTPYKVSISGTTVILTCPQYPGSEILWQHNDKNIGGDEDDKNIGSDEDHLSLKEFSELEQSGYYVCYPRGSKPEDANFYLYLRARVCENCMEMD
For B4, the binding result in assay [2] was “binds”.
